Common to all, as to details: both partners purified
Assay [1] concerns the target T1, Munc18-1-His (rat, UniProt P61765 1-594).
T1 construct: Munc18-1 (STXBP1); also called Munc18a; STXBP1; source: E. coli Rosetta BL21 (DE3), purified to homogeneity as described by Hu et al

In assay [2] the target is T2, Munc18-1 + Sx1a (rat, UniProt P61765 1-594; P32851 1-261).
T2 construct: Munc18-1 (STXBP1), as m1; also called Munc18-1 in the presence of Sx1a; source: mixed from the purified E. coli proteins m1 and m32
T2 sequence (P61765 whole entry, chain 1 of 2): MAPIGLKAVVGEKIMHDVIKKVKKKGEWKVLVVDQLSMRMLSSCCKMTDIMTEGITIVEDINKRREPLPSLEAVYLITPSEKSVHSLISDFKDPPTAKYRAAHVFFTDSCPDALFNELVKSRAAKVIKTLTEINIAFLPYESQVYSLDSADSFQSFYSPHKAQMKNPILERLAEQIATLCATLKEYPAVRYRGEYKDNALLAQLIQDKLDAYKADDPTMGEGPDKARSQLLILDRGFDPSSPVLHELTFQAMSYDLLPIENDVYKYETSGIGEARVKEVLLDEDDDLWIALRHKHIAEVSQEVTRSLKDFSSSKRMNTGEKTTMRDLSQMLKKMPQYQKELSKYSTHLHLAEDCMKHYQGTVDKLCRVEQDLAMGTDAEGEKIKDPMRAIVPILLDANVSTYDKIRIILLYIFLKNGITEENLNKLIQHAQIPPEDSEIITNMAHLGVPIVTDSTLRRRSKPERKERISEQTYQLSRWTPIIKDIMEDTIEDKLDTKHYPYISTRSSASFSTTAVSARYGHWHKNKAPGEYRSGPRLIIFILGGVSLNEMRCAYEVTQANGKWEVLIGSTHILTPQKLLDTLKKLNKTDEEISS
T2 sequence (P32851 1-261, chain 2 of 2): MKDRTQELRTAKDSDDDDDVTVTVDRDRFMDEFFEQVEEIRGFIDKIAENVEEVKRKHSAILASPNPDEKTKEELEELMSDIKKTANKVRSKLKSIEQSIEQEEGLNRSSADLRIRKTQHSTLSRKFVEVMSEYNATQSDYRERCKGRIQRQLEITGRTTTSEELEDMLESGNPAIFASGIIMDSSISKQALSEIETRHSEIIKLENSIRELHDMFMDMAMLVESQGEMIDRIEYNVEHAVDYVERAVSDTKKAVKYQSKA
As to the kind of experiment: pull-down; GST-Mint1 MID as bait, Munc18-1 in the presence of Sx1a; Coomassie-stained gel.

For assay [3], the target named is T1, Munc18-1-His. This is another data set of the same source.
Assay [4] concerns the target T3, Mint1 PTB domain (residues 448-623) (human, UniProt Q02410 448-623).
T3 construct: human Mint1 PTB domain, residues 448-623; pGEX6P-2; source: E. coli Rosetta BL21 (DE3), purified (glutathione-Sepharose, Prescission protease, gel filtration)
T3 sequence (looked up): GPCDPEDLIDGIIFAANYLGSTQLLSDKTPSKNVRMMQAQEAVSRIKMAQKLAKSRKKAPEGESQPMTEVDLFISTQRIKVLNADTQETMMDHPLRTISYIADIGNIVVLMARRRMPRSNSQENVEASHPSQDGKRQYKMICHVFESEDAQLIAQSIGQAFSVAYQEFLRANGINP
As to the kind of experiment: ITC; 25 °C, 50 mM Hepes, 200 mM NaCl, 0.5 mM TCEP, 5% glycerol; 1 mM peptide titrated into 50 μM Mint1 PTB domain; 1:1 binding model. Background: Isothermal titration calorimetry measures the heat released or taken up as one component is titrated into another.

Assay [5] deals with T4, Mint1 PTB + TJAP1 (9-22) (human, UniProt Q02410 448-623).
T4 construct: human Mint1 PTB domain, residues 448-623, as m35; human tight junction-associated protein 1 residues 9-22, as m37; source: mixed from purified m35 and the synthetic peptide m37
As to the kind of experiment: ITC; as a5, competition experiment with the other peptide (APP 750-769 or TJAP1 9-22) present with Mint1 PTB in the cell.

The target of assay [6] is T5, Mint1 PTB + APP (750-769) (human, UniProt Q02410 448-623).
T5 construct: human Mint1 PTB domain, residues 448-623, as m35; human amyloid precursor protein residues 750-769, as m36; source: mixed from purified m35 and the synthetic peptide m36
Described as above.

The target in assay [7] is T1, Munc18-1-His. The source holds these as a separate data set.
Assay [8] addresses T2, Munc18-1 + Sx1a.

For orientation: stoichiometry N means the number of molecules, sites or subunits per partner or assembly.

Where two headings read alike, the source gives them in different places.

T1 sequence (P61765 whole entry): as the sequence (P61765 whole entry, chain 1 of 2) above

B1: Mint1_4 peptide (263-282) (peptide)
peptide: SYEQEEDIDQIVAEVKQSMS
notes: source: synthetic peptide, bought: Genscript
For the molecule B1, in assay [1], the Kd is 12.9 µM, the dH was -2.3 kcal/mol and the “stoichiometry N” value was 1.3.

B2: Mint1_6 peptide (267-282) (peptide)
peptide: EEDIDQIVAEVKQSMS
notes: as for B1
Regarding B2, in assay [1], the Kd was found to be 4 µM, the dH is -1.29 kcal/mol and the “stoichiometry N” value is 1.2.

B3: GST-Mint1 (226-314) (MID) (domain or fragment, human, UniProt Q02410 226-314, looked up)
chain: YRQEALGARLHHYDERSDGESDSPEKEAEFAPYPRMDSYEQEEDIDQIVAEVKQSMSSQSLDKAAEDMPEAEQDLERPPTPAGGRPDSP
notes: human Mint1 (X11, APBA1) residues 226-314, the MID by the methods; it could also be 222-314; also called GST-Mint1 MID; source: E. coli Rosetta BL21 (DE3), purified (glutathione-Sepharose, Superdex 75)
For B3, the binding result in assay [2] and in assay [3] was “binds” throughout.

B4: APP (750-769) peptide (peptide)
peptide: SKMQQNGYENPTYKFFEQMQ
notes: human amyloid precursor protein residues 750-769; also called APP NPxY peptide; source: synthetic peptide (solid phase synthesis in-house, reverse-phase HPLC)
Consider B4, for which, in assay [4], the Kd is 0.31 µM, the dH was -15.6 kcal/mol and the “stoichiometry N” value turned out to be 1. Further, in assay [5], the Kd came out at 0.58 µM, the dH was -11.8 kcal/mol and the “stoichiometry N” value is 1.

B5: Mint1_3 peptide (257-286 phosphomimic) (peptide)
peptide: PYPRMDEEEQEEDIDQIVAEVKQEMEEQEL
notes: human Mint1 residues 257-286 with phosphomimetic Glu; source: synthetic peptide, bought: Genscript
Turning to B5, in assay [1], the Kd is 14 µM, the dH was -6.5 kcal/mol and the “stoichiometry N” value stood at 1.1.

B6: Mint1_1c peptide (266-282) (peptide)
peptide: QEEDIDQIVAEVKQSMS
notes: as for B1
Regarding B6, in assay [1], the Kd came to 23.1 µM, the dH was -1.2 kcal/mol and the “stoichiometry N” value is 1.

B7: TJAP1 (9-22) peptide (peptide)
peptide: KPYRKAPPEHRELR
notes: human tight junction-associated protein 1 residues 9-22; also called TJAP1 peptide; PILT; source: synthetic peptide (solid phase synthesis in-house, reverse-phase HPLC)
As for B7, in assay [4], the Kd worked out at 20.9 µM, the dH is -8.9 kcal/mol and the “stoichiometry N” value came to 1. Besides, in assay [6], the Kd came to 29.4 µM, the dH is -7.1 kcal/mol and the “stoichiometry N” value is 1.

B8: Mint1 (261-282) synthetic peptide (peptide)
peptide: MDSYEQEEDIDQIVAEVKQSMS
notes: also called Mint1_1; Mint1 AHM peptide; source: synthetic peptide, bought: Genscript
For B8, the dH was -7.9 kcal/mol in assay [7], -8.8 kcal/mol in assay [1] and -8.9 kcal/mol in assay [8]. Also, the “stoichiometry N” value in assay [7] was 1; in assay [1] it was 0.8; in assay [8], 1.

B9: Mint1_2 peptide (257-286) (peptide)
peptide: PYPRMDSYEQEEDIDQIVAEVKQSMSSQSL
notes: human Mint1 residues 257-286; source: synthetic peptide, bought: Genscript
As to B9, in assay [1], the Kd is 26 µM, the dH was -4.21 kcal/mol and the “stoichiometry N” value was 1.3.

B10: Mint1_7 peptide (261-280) (peptide)
peptide: MDSYEQEEDIDQIVAEVKQS
notes: as for B1
On to B10, for which, in assay [1], the Kd was determined as 19.1 µM, the dH was -1.78 kcal/mol and the “stoichiometry N” value was 1.

B11: GST-Mint1 MID (residues 222-314) (domain or fragment)
chain: EAAAYRQEALGARLHHYDERSDGESDSPEKEAEFAPYPRMDSYEQEEDIDQIVAEVKQSMSSQSLDKAAEDMPEAEQDLERPPTPAGGRPDSP
notes: pGEX4T-2, codon optimised; The methods call 226-314 the MID; also called GST-Mint1 (222-314); source: E. coli Rosetta BL21 (DE3), purified (glutathione-Sepharose, gel filtration)
Take B11: the binding result in assay [3] is on record as “binds”.

B12: Mint1_5 peptide (265-282) (peptide)
peptide: EQEEDIDQIVAEVKQSMS
notes: as for B1
Take B12: in assay [1], the Kd came out at 5.6 µM, the dH was -3.48 kcal/mol and the “stoichiometry N” value came out at 1.3.
